In experiment [1] the target is HLA-DR3 (HLA-DRA*0101 and -DRB1*0301), as expressed in HLA-DR3 transgenic mice (human). Briefly: cell-based or functional assay.
The target in experiment [2] is HLA-DR4 (HLA-DRA*0101 and -DRB1*0401), as expressed in HLA-DR4 transgenic mice (human). Briefly: cell-based or functional assay.
In experiment [3] the test system is HLA-A2, -A24, -B7, -DR2, -DR3 and -DR4 transgenic mice. The class given is cell-based. Also on record: key to HLA allele this work (HLA restriction by ELISpot): —represents no positive ELISpot response.
For experiment [4], the system named is splenocytes of HLA-A24 (A*2402) transgenic mice. The class given is cell-based. Set-up: key to A24: average IFN-γ spots forming cells per million splenocytes: — represents no positive ELISpot response.
The subject of experiment [5] is splenocytes of HLA-B7 (B*0702) transgenic mice. The class given is cell-based. Also on record: key to B7: average IFN-γ spots forming cells per million splenocytes: — represents no positive ELISpot response.
The subject of experiment [6] is splenocytes of HLA-DR2 (DRB1*1501) transgenic mice. It counts as cell-based. Also on record: key to DR2: average IFN-γ spots forming cells per million splenocytes: — represents no positive ELISpot response.
Experiment [7] concerns splenocytes of HLA-DR3 (DRB1*0301) transgenic mice. The class given is cell-based.
Experiment [8] has as its system splenocytes of HLA-DR4 (DRB1*0401) transgenic mice. The class given is cell-based. Set-up: key: — represents no positive ELISpot response.

In the case of “NP 408-424 peptide of influenza virus A/New York/348/2003 (H1N1)”, in experiment [1], the IFN-γ ELISpot at 10 µg/ml peptide, splenocytes of immunized HLA transgenic mice was 41 and the lowest concentration of peptide giving positive ELISpot response amounted to 10 µg/mL.

In experiment [1], “PB1 554-570 peptide of influenza virus A/New York/348/2003 (H1N1)” returned an IFN-γ ELISpot at 10 µg/ml peptide, splenocytes of immunized HLA transgenic mice of 166 and a lowest concentration of peptide giving positive ELISpot response of 0.1 µg/mL. In addition, in experiment [2], the IFN-γ ELISpot at 10 µg/ml peptide, splenocytes of immunized HLA transgenic mice turned out to be 76 and the lowest concentration of peptide giving positive ELISpot response was found to be 0.1 µg/mL.

On to “PB2 434-450 peptide of influenza virus A/New York/348/2003 (H1N1)”, for which, in experiment [1], the IFN-γ ELISpot at 10 µg/ml peptide, splenocytes of immunized HLA transgenic mice was found to be 444 and the lowest concentration of peptide giving positive ELISpot response stood at 0.1 µg/mL.

In experiment [1], “NP 109-125 peptide of influenza virus A/New York/348/2003 (H1N1)” came in with an IFN-γ ELISpot at 10 µg/ml peptide, splenocytes of immunized HLA transgenic mice of 501 and a lowest concentration of peptide giving positive ELISpot response of 0.1 µg/mL.

As for “PA 126-142 peptide of influenza virus A/New York/348/2003 (H1N1)”, in experiment [2], the IFN-γ ELISpot at 10 µg/ml peptide, splenocytes of immunized HLA transgenic mice worked out at 37 and the lowest concentration of peptide giving positive ELISpot response was determined as 0.1 µg/mL.

In experiment [1], “NP 103-119 peptide of influenza virus A/New York/348/2003 (H1N1)” gave an IFN-γ ELISpot at 10 µg/ml peptide, splenocytes of immunized HLA transgenic mice of 614 and a lowest concentration of peptide giving positive ELISpot response of 0.1 µg/mL.

Regarding “PB2 369-385 peptide of influenza virus A/New York/348/2003 (H1N1)”, in experiment [2], the IFN-γ ELISpot at 10 µg/ml peptide, splenocytes of immunized HLA transgenic mice worked out at 54 and the lowest concentration of peptide giving positive ELISpot response was found to be 0.1 µg/mL.

In experiment [2], “PB2 42-58 peptide of influenza virus A/New York/348/2003 (H1N1)” had an IFN-γ ELISpot at 10 µg/ml peptide, splenocytes of immunized HLA transgenic mice of 166 and a lowest concentration of peptide giving positive ELISpot response of 0.1 µg/mL.

As to “PB1 120-136 peptide of influenza virus A/New York/348/2003 (H1N1)”, in experiment [1], the IFN-γ ELISpot at 10 µg/ml peptide, splenocytes of immunized HLA transgenic mice amounted to 142 and the lowest concentration of peptide giving positive ELISpot response turned out to be 0.1 µg/mL.

In the case of “PB1 656-672 peptide of influenza virus A/New York/348/2003 (H1N1)”, in experiment [2], the IFN-γ ELISpot at 10 µg/ml peptide, splenocytes of immunized HLA transgenic mice was found to be 59 and the lowest concentration of peptide giving positive ELISpot response was 0.1 µg/mL.

In experiment [2], “NP 73-89 peptide of influenza virus A/New York/348/2003 (H1N1)” had an IFN-γ ELISpot at 10 µg/ml peptide, splenocytes of immunized HLA transgenic mice of 121 and a lowest concentration of peptide giving positive ELISpot response of 0.1 µg/mL.

As for NKMARLGKGYMFESKSM, the “HLA allele this work (HLA restriction by ELISpot)” value (shortened to “HLA allele this work”) in experiment [3] was “—”.

As for “M1 169-185 peptide of influenza virus A/New York/348/2003 (H1N1)”, in experiment [1], the IFN-γ ELISpot at 10 µg/ml peptide, splenocytes of immunized HLA transgenic mice stood at 120 and the lowest concentration of peptide giving positive ELISpot response is 0.1 µg/mL.

“PB1 126-142 peptide of influenza virus A/New York/348/2003 (H1N1)”: in experiment [1], the IFN-γ ELISpot at 10 µg/ml peptide, splenocytes of immunized HLA transgenic mice worked out at 78 and the lowest concentration of peptide giving positive ELISpot response was 0.1 µg/mL.

As for AGALASCMGLIYNRMGA, the “HLA allele this work” value in experiment [3] is “—”.

In experiment [1], “PB2 464-480 peptide of influenza virus A/New York/348/2003 (H1N1)” gave an IFN-γ ELISpot at 10 µg/ml peptide, splenocytes of immunized HLA transgenic mice of 324 and a lowest concentration of peptide giving positive ELISpot response of 0.1 µg/mL.

In experiment [2], “M1 175-191 peptide of influenza virus A/New York/348/2003 (H1N1)” gave an IFN-γ ELISpot at 10 µg/ml peptide, splenocytes of immunized HLA transgenic mice of 165 and a lowest concentration of peptide giving positive ELISpot response of 0.1 µg/mL.

For the substance “PA 558-574 peptide of influenza virus A/New York/348/2003 (H1N1)”, in experiment [2], the IFN-γ ELISpot at 10 µg/ml peptide, splenocytes of immunized HLA transgenic mice was determined as 114 and the lowest concentration of peptide giving positive ELISpot response was 0.1 µg/mL.

Regarding “PB1 471-487 peptide of influenza virus A/New York/348/2003 (H1N1)”, in experiment [1], the IFN-γ ELISpot at 10 µg/ml peptide, splenocytes of immunized HLA transgenic mice came to 116 and the lowest concentration of peptide giving positive ELISpot response came out at 0.1 µg/mL.

In experiment [1], “NP 37-53 peptide of influenza virus A/New York/348/2003 (H1N1)” displayed an IFN-γ ELISpot at 10 µg/ml peptide, splenocytes of immunized HLA transgenic mice of 66 and a lowest concentration of peptide giving positive ELISpot response of 1 µg/mL.

With “PB1 340-356 peptide of influenza virus A/New York/348/2003 (H1N1)”, in experiment [1], the IFN-γ ELISpot at 10 µg/ml peptide, splenocytes of immunized HLA transgenic mice is 175 and the lowest concentration of peptide giving positive ELISpot response came out at 0.1 µg/mL.

As to “PB1 650-666 peptide of influenza virus A/New York/348/2003 (H1N1)”, the IFN-γ ELISpot at 10 µg/ml peptide, splenocytes of immunized HLA transgenic mice in experiment [1] was found to be 142; in experiment [2], 41. The lowest concentration of peptide giving positive ELISpot response in experiment [1] and in experiment [2] was 0.1 µg/mL throughout.

As for “PB1 680-696 peptide of influenza virus A/New York/348/2003 (H1N1)”, in experiment [1], the IFN-γ ELISpot at 10 µg/ml peptide, splenocytes of immunized HLA transgenic mice worked out at 181.

With KTGGPIYKRVDGKWVRE, in experiment [3], the “HLA allele this work” value is given as “DR3”.

Regarding “PB1 31-47 peptide of influenza virus A/New York/348/2003 (H1N1)”, in experiment [2], the IFN-γ ELISpot at 10 µg/ml peptide, splenocytes of immunized HLA transgenic mice came to 106 and the lowest concentration of peptide giving positive ELISpot response was determined as 0.1 µg/mL.

In the case of MDVNPTLLFLKVPAQNA, the “HLA allele this work” value in experiment [3] was “—”.

“PA 132-148 peptide of influenza virus A/New York/348/2003 (H1N1)”: in experiment [2], the IFN-γ ELISpot at 10 µg/ml peptide, splenocytes of immunized HLA transgenic mice amounted to 41 and the lowest concentration of peptide giving positive ELISpot response turned out to be 0.1 µg/mL.

With “PB2 126-142 peptide of influenza virus A/New York/348/2003 (H1N1)”, in experiment [2], the IFN-γ ELISpot at 10 µg/ml peptide, splenocytes of immunized HLA transgenic mice was 316 and the lowest concentration of peptide giving positive ELISpot response was 0.1 µg/mL.

In experiment [2], “M1 181-197 peptide of influenza virus A/New York/348/2003 (H1N1)” registered an IFN-γ ELISpot at 10 µg/ml peptide, splenocytes of immunized HLA transgenic mice of 115 and a lowest concentration of peptide giving positive ELISpot response of 1 µg/mL.

FVANFSMELPSFGVSGV: in experiment [3], the “HLA allele this work” value was “—”.

Consider “PB1 37-53 peptide of influenza virus A/New York/348/2003 (H1N1)”, for which, in experiment [2], the IFN-γ ELISpot at 10 µg/ml peptide, splenocytes of immunized HLA transgenic mice was 125 and the lowest concentration of peptide giving positive ELISpot response came to 0.1 µg/mL.

In experiment [1], “PB2 54-70 peptide of influenza virus A/New York/348/2003 (H1N1)” gave an IFN-γ ELISpot at 10 µg/ml peptide, splenocytes of immunized HLA transgenic mice of 499 and a lowest concentration of peptide giving positive ELISpot response of 0.1 µg/mL.

In experiment [2], “PB2 132-148 peptide of influenza virus A/New York/348/2003 (H1N1)” came in with an IFN-γ ELISpot at 10 µg/ml peptide, splenocytes of immunized HLA transgenic mice of 311 and a lowest concentration of peptide giving positive ELISpot response of 0.1 µg/mL.

On to “PB2 458-474 peptide of influenza virus A/New York/348/2003 (H1N1)”, for which, in experiment [2], the IFN-γ ELISpot at 10 µg/ml peptide, splenocytes of immunized HLA transgenic mice turned out to be 238 and the lowest concentration of peptide giving positive ELISpot response amounted to 0.1 µg/mL.

Take MSLLTEVETYVLSIVPS: the “HLA allele this work” value in experiment [3] is given as “—”.

In experiment [2], “PB1 507-523 peptide of influenza virus A/New York/348/2003 (H1N1)” showed an IFN-γ ELISpot at 10 µg/ml peptide, splenocytes of immunized HLA transgenic mice of 274 and a lowest concentration of peptide giving positive ELISpot response of 0.1 µg/mL.

Regarding “PB2 48-64 peptide of influenza virus A/New York/348/2003 (H1N1)”, in experiment [2], the IFN-γ ELISpot at 10 µg/ml peptide, splenocytes of immunized HLA transgenic mice was determined as 161 and the lowest concentration of peptide giving positive ELISpot response turned out to be 0.1 µg/mL.

In experiment [2], “NP 7-23 peptide of influenza virus A/New York/348/2003 (H1N1)” had an IFN-γ ELISpot at 10 µg/ml peptide, splenocytes of immunized HLA transgenic mice of 52 and a lowest concentration of peptide giving positive ELISpot response of 0.1 µg/mL.

KLLGINMSKKKSYINRT: in experiment [4], the “A24: average IFN-γ spots forming cells per million splenocytes” value is “—”. Also, in experiment [5], the “B7: average IFN-γ spots forming cells per million splenocytes” value was “—”. Further, the “DR2: average IFN-γ spots forming cells per million splenocytes” value in experiment [6] was “—”. Moreover, in experiment [7], the “DR3: average IFN-γ spots forming cells per million splenocytes” value is given as 116 ± 10(0.1) IFN-γ spots forming cells per million splenocytes and the “DR3: lowest concentration of peptide giving positive ELISpot response in peptide titration” value was 116 ± 10(0.1) μg/ml. Besides, the “DR4: average IFN-γ spots forming cells per million splenocytes” value in experiment [8] is “—”.

With DQSLIIAARNIVRRAAV, the “A24: average IFN-γ spots forming cells per million splenocytes” value in experiment [4] is listed as “—”. Moreover, the “B7: average IFN-γ spots forming cells per million splenocytes” value in experiment [5] was “—”. For the same substance, the “DR2: average IFN-γ spots forming cells per million splenocytes” value in experiment [6] is given as “—”. In experiment [7], the “DR3: average IFN-γ spots forming cells per million splenocytes” value is 169 ± 12(0.1) IFN-γ spots forming cells per million splenocytes and the “DR3: lowest concentration of peptide giving positive ELISpot response in peptide titration” value was 169 ± 12(0.1) μg/ml. In addition, the “DR4: average IFN-γ spots forming cells per million splenocytes” value in experiment [8] was “—”.

Take “PB2 256-272 peptide of influenza virus A/New York/348/2003 (H1N1)”: in experiment [1], the IFN-γ ELISpot at 10 µg/ml peptide, splenocytes of immunized HLA transgenic mice came to 169 and the lowest concentration of peptide giving positive ELISpot response worked out at 0.1 µg/mL.

Values taken from US20120294879A1, “CONSENSUS SEQUENCE FOR INFLUENZA A VIRUS” (priority 2009, published 2012).
